Here are results for three molecules from paper PMC10144504 (Cell, 2023).

The target in assay [1] is mC-GCGR-345C-NBD (minimal cysteine GCGR labelled with NBD at the cytoplasmic end of TM6) (human) (UniProt P47871). As to the kind of experiment: other fluorescence titration.
Assay [2] concerns the target mC-GCGR-31C-NBD (minimal cysteine GCGR labelled with NBD on the N-terminal helix of the ECD) (human) (UniProt P47871). As to the kind of experiment: other fluorescence titration.
Assay [3] has as its target Nanoluc-GCGR fusion protein (human) (UniProt P47871). The experiment in a line: FRET or BRET. Background: BRET reads energy transfer from a luciferase to a nearby fluorophore.
Assay [4] has as its target Human glucagon receptor (Q27-F477) (human, UniProt P47871 27-477). As to the kind of experiment: pull-down.

Chain of Nanoluc-GCGR fusion protein (human) (P47871 26-477): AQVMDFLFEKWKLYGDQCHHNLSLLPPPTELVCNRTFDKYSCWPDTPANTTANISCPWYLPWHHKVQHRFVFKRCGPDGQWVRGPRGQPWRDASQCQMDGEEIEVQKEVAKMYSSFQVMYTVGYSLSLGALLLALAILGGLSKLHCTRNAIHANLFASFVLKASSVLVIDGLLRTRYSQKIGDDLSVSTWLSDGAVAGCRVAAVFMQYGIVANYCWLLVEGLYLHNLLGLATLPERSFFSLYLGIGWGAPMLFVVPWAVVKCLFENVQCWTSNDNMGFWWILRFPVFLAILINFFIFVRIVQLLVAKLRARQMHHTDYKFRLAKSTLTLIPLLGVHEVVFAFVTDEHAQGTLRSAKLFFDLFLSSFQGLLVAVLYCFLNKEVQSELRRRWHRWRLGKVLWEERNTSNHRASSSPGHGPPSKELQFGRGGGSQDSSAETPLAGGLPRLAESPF
Chain of Human glucagon receptor (Q27-F477) (P47871 27-477): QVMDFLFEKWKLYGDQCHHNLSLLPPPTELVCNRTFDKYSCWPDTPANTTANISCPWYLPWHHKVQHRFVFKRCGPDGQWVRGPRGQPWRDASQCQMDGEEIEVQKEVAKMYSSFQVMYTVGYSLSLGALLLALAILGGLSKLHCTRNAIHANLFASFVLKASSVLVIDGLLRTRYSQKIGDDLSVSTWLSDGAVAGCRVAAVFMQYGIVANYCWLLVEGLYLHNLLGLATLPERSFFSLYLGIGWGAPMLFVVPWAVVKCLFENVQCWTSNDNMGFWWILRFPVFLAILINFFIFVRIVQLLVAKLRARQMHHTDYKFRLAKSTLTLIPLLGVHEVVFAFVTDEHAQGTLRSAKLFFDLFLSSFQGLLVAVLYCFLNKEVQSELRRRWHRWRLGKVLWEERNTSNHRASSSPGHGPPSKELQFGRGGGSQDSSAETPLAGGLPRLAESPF

What is called EC50 is the midpoint of the concentration-response curve. Lower therefore signals greater potency. In the case of “human RAMP2 (residues 43-175) (from UniProt O60895 43-175) (natural protein)”, the EC50 was found to be 225 nM in assay [1] and 131 nM in assay [2].
In the case of Dasi-E21S-A17K(TAMRA) (peptide), in assay [3], the fold decrease in affinity with co-expressed RAMP2 against without RAMP2 was 2.9 fold.

B1: human RAMP2 (residues 43-175) (natural protein, UniProt O60895 43-175, looked up)
chain: QPLPTTGTPGSEGGTVKNYETAVQFCWNHYKDQMDPIEKDWCDWAMISRPYSTLRDCLEHFAELFDLGFPNPLAERIIFETHQIHFANCSLVQPTFSDPPEDVLLAMIIAPICLIPFLITLVVWRSKDSEAQA
Take B1: the binding result in assay [4] is recorded as “binds”.
